The record followed here is US20030166021A1.

The target of this assay is c-Myc (human) (UniProt P01106). Nature of the assay: cell-based or functional assay.
Sequence of c-Myc (human) (P01106 16-454 limits assumed): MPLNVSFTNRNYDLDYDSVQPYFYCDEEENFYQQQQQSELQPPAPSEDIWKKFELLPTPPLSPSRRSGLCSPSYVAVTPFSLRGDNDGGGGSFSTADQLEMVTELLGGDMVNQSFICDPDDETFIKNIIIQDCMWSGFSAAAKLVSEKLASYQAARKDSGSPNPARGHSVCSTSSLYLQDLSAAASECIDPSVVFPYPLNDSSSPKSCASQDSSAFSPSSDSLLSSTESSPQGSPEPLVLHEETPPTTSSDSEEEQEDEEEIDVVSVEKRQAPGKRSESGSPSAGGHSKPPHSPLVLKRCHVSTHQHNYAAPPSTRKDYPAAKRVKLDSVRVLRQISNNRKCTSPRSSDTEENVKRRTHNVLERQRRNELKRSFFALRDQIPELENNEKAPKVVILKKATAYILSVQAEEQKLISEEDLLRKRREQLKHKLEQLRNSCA

“ATG99 polypeptide (murine clone #99 ORF with initiator methionine, vector neoCMV-ATG99) (from UniProt O08539 310-565)”: the focus formation in the Ras cooperation assay (myc + ras, rat embryo fibroblasts) worked out at 2.4 fold. As to “human Bin1 (Box-dependent Myc-Interacting protein-1), full-length 451 amino acid product of cDNA p99f (from UniProt O00499 9-593)”, the focus formation in the Ras cooperation assay (MYC + RAS, rat embryo fibroblasts) came out at 7 fold and the fold decrease in focus formation by MYC (MYC + activated RAS, rat embryo fibroblasts) worked out at 6 fold.
